The values below come from PMC12386283, “Elucidating the Complex Structural and Molecular Mechanisms Driving P-Glycoprotein-Mediated Transport of Cardiac Glycosides” (International Journal of Molecular Sciences, 2025).

Data set [1] concerns C[C@H]1O[C@@H](O[C@H]2[C@@H](O)C[C@H](O[C@H]3[C@@H](O)C[C@H](O[C@H]4CC[C@@]5(C)[C@H](CC[C@@H]6[C@@H]5CC[C@]5(C)[C@@H](C7=CC(=O)OC7)CC[C@]65O)C4)O[C@@H]3C)O[C@@H]2C)C[C@H](O)[C@@H]1O. Briefly: purified protein, by the assay type. Particulars: other: 37 °C, 3.2 mM ATP, 50 nM proteoliposome, modified Michaelis-Menten fit, pH 7.4.
Method: The Chifflet method is a colorimetric method that measures the amount of free inorganic phosphate (Pi) through the formation of ammonium molybdate and Pi complex, which produces a strong absorbance at 850 nm. The absorbance was measured on a 96-well plate using a CLARIOstar microplate reader (BMG Labtech, Ortenberg, Germany). […] The final concentrations of the proteoliposome and ATP were maintained at 50 nM and 3.2 mM, respectively. Orthovanadate was used as a control and run in parallel to the samples. Finally, the kinetic curves for ATPase activity were fit to a modified Michaelis-Menten equation (Equation (1)) [83]. Igor 6.2 Pro software (Wavemetrics, Tigard, OR, USA) was used for data analysis.(1) V=VmaxS/Km+S+Vbasal where V = Rate of ATP hydrolysis; Vmax = Maximum velocity of ATP hydrolysis; [S] = Substrate concentration; Km = Michaelis–Menten constant; and Vbasal = basal ATPase activity.
The subject of data set [2] is C[C@]12CC[C@H](O)C[C@H]1CC[C@@H]1[C@@H]2C[C@@H](O)[C@]2(C)[C@@H](C3=CC(=O)OC3)CC[C@]12O. The data set can be described thus: purified protein, by the assay type. To be noted: other: 37 °C, 3.2 mM ATP, 50 nM proteoliposome, modified Michaelis-Menten fit, pH 7.4.

wild-type mouse Pgp (MDR3) (Mus musculus), sequence (chain, as listed by the source): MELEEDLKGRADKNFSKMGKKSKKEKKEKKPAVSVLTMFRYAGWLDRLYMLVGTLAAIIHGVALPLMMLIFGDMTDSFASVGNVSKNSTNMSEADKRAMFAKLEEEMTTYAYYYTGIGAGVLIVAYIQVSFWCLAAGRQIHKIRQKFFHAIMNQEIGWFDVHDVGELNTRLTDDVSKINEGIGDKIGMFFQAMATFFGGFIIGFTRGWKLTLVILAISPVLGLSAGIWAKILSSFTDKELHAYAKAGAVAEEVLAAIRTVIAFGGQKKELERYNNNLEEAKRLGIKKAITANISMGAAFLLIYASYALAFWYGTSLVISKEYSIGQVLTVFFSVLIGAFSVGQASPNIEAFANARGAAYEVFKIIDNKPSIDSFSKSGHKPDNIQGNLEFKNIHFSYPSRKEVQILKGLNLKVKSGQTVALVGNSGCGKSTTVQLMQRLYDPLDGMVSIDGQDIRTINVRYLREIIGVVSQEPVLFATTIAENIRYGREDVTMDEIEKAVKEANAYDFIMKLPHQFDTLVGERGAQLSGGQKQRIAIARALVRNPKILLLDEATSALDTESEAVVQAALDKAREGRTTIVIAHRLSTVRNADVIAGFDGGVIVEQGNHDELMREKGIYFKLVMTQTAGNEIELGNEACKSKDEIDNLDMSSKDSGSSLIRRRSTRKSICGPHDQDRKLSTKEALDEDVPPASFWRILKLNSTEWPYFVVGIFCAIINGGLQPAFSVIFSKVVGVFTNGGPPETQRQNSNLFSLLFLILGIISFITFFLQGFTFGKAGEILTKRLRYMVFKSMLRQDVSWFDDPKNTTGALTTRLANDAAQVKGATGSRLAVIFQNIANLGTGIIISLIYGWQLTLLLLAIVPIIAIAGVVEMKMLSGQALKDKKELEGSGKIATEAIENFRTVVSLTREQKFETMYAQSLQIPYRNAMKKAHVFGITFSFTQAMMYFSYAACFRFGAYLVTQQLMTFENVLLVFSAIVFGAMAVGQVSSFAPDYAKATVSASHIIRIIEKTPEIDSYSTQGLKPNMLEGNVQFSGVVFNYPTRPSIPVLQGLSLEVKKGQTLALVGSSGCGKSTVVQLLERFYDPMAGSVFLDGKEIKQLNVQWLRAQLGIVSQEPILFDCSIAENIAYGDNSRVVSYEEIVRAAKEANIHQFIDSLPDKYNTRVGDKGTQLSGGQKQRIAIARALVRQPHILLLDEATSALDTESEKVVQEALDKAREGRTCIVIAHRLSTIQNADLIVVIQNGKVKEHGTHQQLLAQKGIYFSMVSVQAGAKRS

Turning to “wild-type mouse Pgp (MDR3) (Mus musculus)”, the Km in data set [1] worked out at 99.19 ± 13.3 µM. For the same substance, in data set [2], the Km came to 426.82 ± 173.26 µM and the Vmax is 541.92 ± 111 nmol/min/mg.
